Data taken from paper PMC4678854.

Tests used:
Test in all cases: EMSA
TnsE G483R = molecular target: T1, TnsE G483R (Escherichia coli (transposon Tn7), UniProt P05845 1-538, G483R)
T1 sequence: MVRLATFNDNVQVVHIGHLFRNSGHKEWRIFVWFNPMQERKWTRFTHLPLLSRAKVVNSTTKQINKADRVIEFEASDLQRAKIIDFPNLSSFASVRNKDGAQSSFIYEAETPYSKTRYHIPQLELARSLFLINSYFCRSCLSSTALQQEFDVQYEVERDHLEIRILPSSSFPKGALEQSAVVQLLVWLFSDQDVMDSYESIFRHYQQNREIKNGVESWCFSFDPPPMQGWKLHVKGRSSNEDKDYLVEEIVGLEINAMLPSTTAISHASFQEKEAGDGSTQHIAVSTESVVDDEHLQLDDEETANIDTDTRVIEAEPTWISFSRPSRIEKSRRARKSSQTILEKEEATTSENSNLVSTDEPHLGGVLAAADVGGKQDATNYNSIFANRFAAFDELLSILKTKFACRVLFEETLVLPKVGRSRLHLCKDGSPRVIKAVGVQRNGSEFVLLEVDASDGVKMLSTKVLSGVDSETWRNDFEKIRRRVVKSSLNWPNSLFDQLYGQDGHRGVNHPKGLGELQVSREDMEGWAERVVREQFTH

TnsE G515R = molecular target: T2, TnsE G515R (Escherichia coli (transposon Tn7), UniProt P05845 1-538, G515R)
T2 sequence: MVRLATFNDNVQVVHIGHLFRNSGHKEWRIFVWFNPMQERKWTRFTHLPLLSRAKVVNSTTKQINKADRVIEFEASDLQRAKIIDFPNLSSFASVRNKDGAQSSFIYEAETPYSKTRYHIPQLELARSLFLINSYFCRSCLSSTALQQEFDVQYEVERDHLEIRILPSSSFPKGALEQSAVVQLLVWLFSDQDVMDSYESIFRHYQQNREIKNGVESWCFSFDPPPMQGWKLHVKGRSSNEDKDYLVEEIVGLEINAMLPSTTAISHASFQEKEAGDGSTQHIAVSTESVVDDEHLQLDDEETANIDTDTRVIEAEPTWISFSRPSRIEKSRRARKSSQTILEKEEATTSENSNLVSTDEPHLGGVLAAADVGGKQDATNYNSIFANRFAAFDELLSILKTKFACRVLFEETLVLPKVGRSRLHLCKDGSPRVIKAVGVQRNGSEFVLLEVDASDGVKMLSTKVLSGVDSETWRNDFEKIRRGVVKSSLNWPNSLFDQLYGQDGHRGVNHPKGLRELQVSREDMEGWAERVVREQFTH

TnsE A453V = molecular target: T3, TnsE A453V (Escherichia coli (transposon Tn7), UniProt P05845 1-538, A453V)
T3 sequence: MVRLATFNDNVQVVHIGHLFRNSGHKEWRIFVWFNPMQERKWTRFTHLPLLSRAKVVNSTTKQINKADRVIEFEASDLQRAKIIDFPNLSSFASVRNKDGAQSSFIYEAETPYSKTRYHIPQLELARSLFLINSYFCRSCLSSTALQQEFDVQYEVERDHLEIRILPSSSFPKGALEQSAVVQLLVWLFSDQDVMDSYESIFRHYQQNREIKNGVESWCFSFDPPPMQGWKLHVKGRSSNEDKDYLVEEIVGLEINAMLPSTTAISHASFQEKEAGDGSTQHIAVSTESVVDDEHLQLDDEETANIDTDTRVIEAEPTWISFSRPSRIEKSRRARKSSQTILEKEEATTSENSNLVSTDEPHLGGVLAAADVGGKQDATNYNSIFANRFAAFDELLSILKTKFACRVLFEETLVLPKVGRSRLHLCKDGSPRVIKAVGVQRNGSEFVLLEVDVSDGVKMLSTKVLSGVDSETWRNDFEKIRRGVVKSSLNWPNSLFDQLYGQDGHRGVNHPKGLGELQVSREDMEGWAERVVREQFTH

TnsE D523N = molecular target: T4, TnsE D523N (Escherichia coli (transposon Tn7), UniProt P05845 1-538, D523N)
T4 sequence: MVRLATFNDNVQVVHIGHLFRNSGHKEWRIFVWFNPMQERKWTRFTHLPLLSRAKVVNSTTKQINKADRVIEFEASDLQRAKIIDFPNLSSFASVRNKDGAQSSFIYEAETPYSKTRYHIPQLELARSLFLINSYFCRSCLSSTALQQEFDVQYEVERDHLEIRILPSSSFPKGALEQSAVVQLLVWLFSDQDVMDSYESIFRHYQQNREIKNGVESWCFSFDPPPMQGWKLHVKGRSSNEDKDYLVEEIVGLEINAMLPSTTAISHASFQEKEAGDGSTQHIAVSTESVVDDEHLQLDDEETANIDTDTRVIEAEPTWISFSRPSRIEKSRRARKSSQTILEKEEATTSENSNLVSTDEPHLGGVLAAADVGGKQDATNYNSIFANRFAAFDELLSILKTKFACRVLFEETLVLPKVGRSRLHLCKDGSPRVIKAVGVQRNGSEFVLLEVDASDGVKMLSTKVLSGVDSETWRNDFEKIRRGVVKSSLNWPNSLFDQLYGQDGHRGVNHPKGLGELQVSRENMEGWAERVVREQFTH

TnsE E522K = molecular target: T5, TnsE E522K (Escherichia coli (transposon Tn7), UniProt P05845 1-538, E522K)
T5 sequence: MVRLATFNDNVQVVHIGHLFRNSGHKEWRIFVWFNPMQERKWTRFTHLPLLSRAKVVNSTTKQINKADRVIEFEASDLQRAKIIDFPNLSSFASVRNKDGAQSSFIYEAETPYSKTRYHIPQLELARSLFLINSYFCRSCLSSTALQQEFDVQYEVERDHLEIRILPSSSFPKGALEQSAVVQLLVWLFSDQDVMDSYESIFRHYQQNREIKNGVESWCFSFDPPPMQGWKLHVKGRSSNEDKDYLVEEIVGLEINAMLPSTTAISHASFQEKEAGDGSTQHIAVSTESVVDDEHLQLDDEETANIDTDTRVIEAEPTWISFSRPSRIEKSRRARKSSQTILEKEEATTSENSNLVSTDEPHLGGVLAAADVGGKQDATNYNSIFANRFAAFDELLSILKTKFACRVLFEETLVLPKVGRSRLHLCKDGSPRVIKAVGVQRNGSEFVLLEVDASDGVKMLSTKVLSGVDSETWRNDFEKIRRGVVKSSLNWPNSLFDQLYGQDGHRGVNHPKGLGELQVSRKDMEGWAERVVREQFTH

TnsE E516K = molecular target: T6, TnsE E516K (Escherichia coli (transposon Tn7), UniProt P05845 1-538, E516K)
T6 sequence: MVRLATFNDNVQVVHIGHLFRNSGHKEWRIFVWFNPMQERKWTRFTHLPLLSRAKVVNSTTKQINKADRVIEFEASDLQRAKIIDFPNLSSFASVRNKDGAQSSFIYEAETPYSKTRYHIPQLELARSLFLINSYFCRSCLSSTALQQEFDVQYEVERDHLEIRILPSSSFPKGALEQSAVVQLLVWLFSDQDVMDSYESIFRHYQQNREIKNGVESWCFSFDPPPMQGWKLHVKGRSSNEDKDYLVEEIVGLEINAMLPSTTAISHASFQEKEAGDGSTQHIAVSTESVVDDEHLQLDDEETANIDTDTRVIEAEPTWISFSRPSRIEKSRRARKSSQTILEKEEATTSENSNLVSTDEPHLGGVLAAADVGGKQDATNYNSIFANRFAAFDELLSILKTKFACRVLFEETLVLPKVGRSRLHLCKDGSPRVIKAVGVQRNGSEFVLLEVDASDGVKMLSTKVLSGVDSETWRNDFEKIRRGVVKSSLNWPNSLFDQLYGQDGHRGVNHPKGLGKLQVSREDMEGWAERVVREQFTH

TnsE wild-type = molecular target: T7, TnsE wild-type (Escherichia coli (transposon Tn7), UniProt P05845 1-538)
T7 sequence: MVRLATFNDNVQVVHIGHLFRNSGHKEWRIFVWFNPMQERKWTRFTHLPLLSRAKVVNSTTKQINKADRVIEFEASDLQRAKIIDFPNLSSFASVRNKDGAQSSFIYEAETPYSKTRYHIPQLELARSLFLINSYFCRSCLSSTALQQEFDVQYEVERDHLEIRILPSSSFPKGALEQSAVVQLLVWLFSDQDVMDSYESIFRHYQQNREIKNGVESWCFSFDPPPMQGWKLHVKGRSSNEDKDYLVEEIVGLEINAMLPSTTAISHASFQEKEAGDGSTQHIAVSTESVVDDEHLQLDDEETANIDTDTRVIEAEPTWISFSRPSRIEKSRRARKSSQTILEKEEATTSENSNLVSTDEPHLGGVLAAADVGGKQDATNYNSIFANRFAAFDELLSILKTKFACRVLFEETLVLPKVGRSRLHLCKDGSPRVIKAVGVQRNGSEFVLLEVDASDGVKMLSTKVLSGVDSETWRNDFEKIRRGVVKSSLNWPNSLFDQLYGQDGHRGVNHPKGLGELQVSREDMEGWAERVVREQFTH

TnsE E522K+D523N = molecular target: T8, TnsE E522K+D523N (Escherichia coli (transposon Tn7), UniProt P05845 1-538, E522K;D523N)
T8 sequence: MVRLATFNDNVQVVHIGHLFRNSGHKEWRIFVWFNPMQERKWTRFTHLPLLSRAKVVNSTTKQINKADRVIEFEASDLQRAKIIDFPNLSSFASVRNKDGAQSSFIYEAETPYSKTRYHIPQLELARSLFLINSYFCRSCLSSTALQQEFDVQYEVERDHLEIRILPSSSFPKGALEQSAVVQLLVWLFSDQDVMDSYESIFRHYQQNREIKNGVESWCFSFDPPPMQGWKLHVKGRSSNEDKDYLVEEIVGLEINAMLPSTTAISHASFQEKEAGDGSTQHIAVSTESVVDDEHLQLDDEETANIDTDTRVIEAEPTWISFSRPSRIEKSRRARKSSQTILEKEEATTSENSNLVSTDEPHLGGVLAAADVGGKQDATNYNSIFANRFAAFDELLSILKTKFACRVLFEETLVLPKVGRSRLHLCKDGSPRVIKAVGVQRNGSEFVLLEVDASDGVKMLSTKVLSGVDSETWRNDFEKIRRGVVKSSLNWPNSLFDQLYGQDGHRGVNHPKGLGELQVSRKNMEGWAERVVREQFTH

Measured: binding result

B1: 3' recessed-end DNA substrate (mixed)
DNA 1: CCATTAGCAAGGCCGGAAACGTCACCAATGCAACGATCAGCCAACTAAACTAGGACATCTTTGCC
DNA 2: GGCAAAGATGTCCTAGTTTAGTTGGCTGAT
binds: TnsE G483R | TnsE G515R | TnsE A453V | TnsE D523N | TnsE E522K | TnsE E516K | TnsE wild-type | TnsE E522K+D523N
